Measured values: the Human Domainome abundance scans (Beltran et al. 2025)

B1: F-BAR and double SH3 domains protein 1, residues 467 to 528; numbered along this chain, Q86WN1 (parent)
chain: RALPCPAHVVFRYQAGREDELTITEGEWLEVIEEGDADEWVKARNQHGEVGFVPERYLNFPD

Variants of: B1
Assay: abundance fitness (aPCA) (normalised: wild type 0, dead -1); higher = more abundant; growth selection in yeast, the domain comes from the species named
Conditions: Homo sapiens

Abundance fitness: each site, then its substitutions
E49: S -0.022 | R -0.085 | L -0.13 | F -0.088 | Q 0.101 | V -0.139 | P -1.05 | D -0.118 | A -0.131 | C -0.029 | K -0.026 | I 0.1 | H -0.015 | Y -0.427 | T -0.075
R44: Q -0.23 | V -0.165 | I -0.036 | P -0.673 | E -0.268 | T -0.23 | G -0.898 | L -0.342 | H -0.74 | C -0.178 | M -0.175 | W -0.947 | Y -0.587 | F -0.756 | K 0.003 | S -0.253
E39: F 0.042 | I -0.1 | M 0.148 | T 0.02 | A -0.016 | K 0.013 | W -0.227 | Q -0.027 | H 0.188 | V -0.184 | G 0.066 | P -0.207 | C -0.103 | L -0.146 | D -0.228 | N 0.227 | Y -0.226 | S 0.028 | R 0.017
E33: Y -0.56
E34: V -0.004 | Y -0.053 | R -0.044 | W -0.074 | S -0.101 | C 0.008 | H -0.071 | T -0.048 | L -0.028 | Q -0.026 | A 0.017 | M -0.085 | D -0.409 | N -0.016 | P -0.112 | G -0.17 | F 0.127 | I -0.165
G35: F -0.172 | V -0.005 | S -0.07 | E -0.407 | R -0.072 | H -0.409 | K -0.126 | N -0.276 | D -0.211 | C -0.179 | P -0.371 | I -0.232 | M -0.202 | Q -0.379 | Y -0.223 | W -0.332 | L -0.318 | T 0.063 | A -0.045
F52: I -0.152 | N -0.175 | Q -0.259 | T -0.284 | K 0.048 | E -0.322 | D -0.431 | S -0.059 | L 0.104 | H -0.199 | M -0.019 | A -0.249 | Y 0.093 | R -0.063 | W 0.033 | G -0.491 | C -0.189 | V -0.127
D38: A 0.057 | H -0.002 | L 0.016 | I -0.066 | F -0.127 | S 0.005 | Q 0.021 | M -0.17 | E 0.101 | C -0.047 | Y -0.122 | W -0.154 | K -0.08 | G 0.023 | R 0.053 | N -0.017
G51: P -0.952 | C -0.958 | Q -1.03 | A -0.691 | V -0.857 | H -0.973 | D -0.706 | K -0.42 | M -0.843 | W -0.954 | F -0.669 | E -0.863 | N -1.17 | Y -0.736 | T -0.698 | L -0.273
D36: F 0.005 | P 0.13 | L -0.01 | A -0.165 | H 0.033 | E 0.032 | T -0.042 | S -0.045 | G -0.049 | K 0.112 | Y -0.171 | R -0.016 | C -0.182 | Q 0.073 | W 0.006
W40: A -0.3 | E -0.196 | L -0.134 | M 0.037 | H -0.01 | G -0.547 | Y 0.079 | V -0.111 | Q -0.122 | D 0.028 | N -0.33 | T -0.101 | I -0.139 | C -0.181 | R 0.121 | S -0.25 | K -0.051
A43: I -0.297 | N -0.763 | K -0.71 | Y -0.914 | V -0.056 | Q -0.839 | H -0.629 | S -0.578 | T -0.409 | G -0.299 | C -0.038 | D -0.793 | W -0.83 | R -0.842 | P -0.865 | M -0.548 | L -0.853
Q46: N -0.027 | Y -0.114 | R -0.028 | H -0.163 | W -0.228 | T -0.01 | A 0.036 | G -0.082 | E -0.052 | F -0.207 | C -0.018 | I -0.142 | L -0.056 | K 0.074 | M -0.088 | S -0.04 | P -0.334 | V -0.088 | D -0.198
K42: G -0.775 | D -0.664 | C -0.25 | L -0.166 | S -0.325 | T -0.076 | F -0.207 | W -0.181 | P -0.974 | E -0.496 | N -0.575 | R -0.182 | V -0.105 | A -0.511 | H -0.571 | Q -0.129 | I 0.092 | Y -0.381 | M -0.176
H47: T -0.172 | I -0.176 | Y -0.215 | F -0.246 | W -0.176 | L 0.01 | E -0.171 | Q -0.026 | C -0.045 | M -0.039 | P -0.585 | V 0.004 | D -0.006 | R 0.092 | G 0.051 | K 0.048 | A 0.164
V50: L -0.285 | H -0.554 | S -0.148 | Q -0.093 | A -0.211 | R -0.607 | T -0.11 | D -0.599 | N -0.737 | E 0.016 | K -0.187 | F -0.29 | M -0.108 | I -0.235 | C -0.191 | P -0.833
A37: H -0.005 | R 0.141 | V 0.052 | G -0.05 | I -0.026 | K 0.14 | P -0.107 | T 0.014 | W -0.044 | Q 0.071 | C 0.118 | M 0.018 | D -0.048 | F -0.023
V41: D -0.815 | L -0.199 | F -0.262 | E -1.12 | R -0.526 | N -1.01 | P -0.94 | A -0.495 | K -0.411 | Y -0.154 | M -0.199 | H -0.929 | T -0.609 | C -0.013 | I -0.353 | Q -0.949 | G -0.72 | S -0.73
V53: F -0.823 | C -0.262 | E -0.934 | G -0.624 | A -0.564 | D -0.745 | M -0.673 | H -0.675 | I -0.031
G48: K -0.328 | M -0.296 | Y -0.494 | D -0.217 | E -0.169 | I -0.787 | H -0.34 | V -0.741 | R -0.376 | A -0.39 | W -0.435 | S -0.132 | Q -0.574 | L -0.423 | F -0.293 | P -0.623
N45: R -0.941 | I -0.212 | M -0.891 | E -1.08 | L -0.737 | Q -0.884 | V -0.949 | A -0.567 | T -0.402 | P -0.301 | H -0.166 | Y -0.377 | W -1.16 | F -0.869 | K -0.447 | G -0.576 | S -0.571 | C -0.994 | D -0.571
